According to article PMC5618490, “Arabidopsis E3 Ubiquitin Ligases PUB22 and PUB23 Negatively Regulate Drought Tolerance by Targeting ABA Receptor PYL9 for Degradation” (International Journal of Molecular Sciences, 2017):

T1: MBP-PUB22 (Arabidopsis thaliana, UniProt Q9SVC6 1-435)
T1 construct: PUB22, plant U-box E3 ubiquitin ligase, Arabidopsis thaliana; Kept on the amylose resin for the pull-down; source: E. coli BL21 (DE3), purified (amylose resin); not shown: MBP, N-terminal, kept
T1 sequence (looked up): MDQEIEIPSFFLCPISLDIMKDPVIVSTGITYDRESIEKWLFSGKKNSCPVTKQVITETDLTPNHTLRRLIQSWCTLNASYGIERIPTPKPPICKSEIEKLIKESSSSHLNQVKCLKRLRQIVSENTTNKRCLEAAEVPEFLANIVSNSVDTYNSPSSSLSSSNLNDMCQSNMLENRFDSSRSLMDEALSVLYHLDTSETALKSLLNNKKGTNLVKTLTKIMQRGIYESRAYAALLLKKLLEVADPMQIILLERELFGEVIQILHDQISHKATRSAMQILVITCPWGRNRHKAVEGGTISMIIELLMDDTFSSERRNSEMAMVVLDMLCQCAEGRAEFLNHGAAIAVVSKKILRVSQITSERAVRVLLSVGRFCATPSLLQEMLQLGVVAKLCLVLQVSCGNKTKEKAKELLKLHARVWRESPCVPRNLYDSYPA

T2: MBP-PUB23 (Arabidopsis thaliana, UniProt Q84TG3 1-411)
T2 construct: PUB23, plant U-box E3 ubiquitin ligase, Arabidopsis thaliana; Kept on the amylose resin for the pull-down; source: E. coli BL21 (DE3), purified (amylose resin); not shown: MBP, N-terminal, kept
T2 sequence (looked up): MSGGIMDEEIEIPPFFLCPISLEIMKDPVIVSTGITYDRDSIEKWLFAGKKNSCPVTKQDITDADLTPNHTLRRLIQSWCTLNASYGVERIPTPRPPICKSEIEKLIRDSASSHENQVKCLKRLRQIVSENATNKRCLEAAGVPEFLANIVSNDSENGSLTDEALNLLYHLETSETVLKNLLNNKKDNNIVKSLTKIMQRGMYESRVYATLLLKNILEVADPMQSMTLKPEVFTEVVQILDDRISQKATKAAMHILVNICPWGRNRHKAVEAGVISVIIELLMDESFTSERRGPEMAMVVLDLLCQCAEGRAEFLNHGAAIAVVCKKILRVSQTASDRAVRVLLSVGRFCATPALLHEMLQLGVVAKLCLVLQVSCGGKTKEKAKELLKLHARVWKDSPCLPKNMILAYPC

B1: GST-PYL5 (receptor, Arabidopsis thaliana, UniProt Q9FLB1 1-203, looked up)
chain: MRSPVQLQHGSDATNGFHTLQPHDQTDGPIKRVCLTRGMHVPEHVAMHHTHDVGPDQCCSSVVQMIHAPPESVWALVRRFDNPKVYKNFIRQCRIVQGDGLHVGDLREVMVVSGLPAVSSTERLEILDEERHVISFSVVGGDHRLKNYRSVTTLHASDDEGTVVVESYIVDVPPGNTEEETLSFVDTIVRCNLQSLARSTNRQ
notes: PYL5, PYR/PYL/RCAR family ABA receptor, Arabidopsis thaliana; cDNA fused to the C terminus of the GST tag in pCold-GST; source: E. coli DE3 cells, purified (Glutathione Sepharose 4B); not shown: GST, N-terminal, kept
B2: GST-PYL8 (receptor, Arabidopsis thaliana, UniProt Q9FGM1 1-188, looked up)
chain: MEANGIENLTNPNQEREFIRRHHKHELVDNQCSSTLVKHINAPVHIVWSLVRRFDQPQKYKPFISRCVVKGNMEIGTVREVDVKSGLPATRSTERLELLDDNEHILSIRIVGGDHRLKNYSSIISLHPETIEGRIGTLVIESFVVDVPEGNTKDETCYFVEALIKCNLKSLADISERLAVQDTTESRV
notes: PYL8, PYR/PYL/RCAR family ABA receptor, Arabidopsis thaliana; cDNA fused to the C terminus of the GST tag in pCold-GST; source: E. coli DE3 cells, purified (Glutathione Sepharose 4B); not shown: GST, N-terminal, kept
B3: GST-PYL9 (receptor, Arabidopsis thaliana, UniProt Q84MC7 1-187, looked up)
chain: MMDGVEGGTAMYGGLETVQYVRTHHQHLCRENQCTSALVKHIKAPLHLVWSLVRRFDQPQKYKPFVSRCTVIGDPEIGSLREVNVKSGLPATTSTERLELLDDEEHILGIKIIGGDHRLKNYSSILTVHPEIIEGRAGTMVIESFVVDVPQGNTKDETCYFVEALIRCNLKSLADVSERLASQDITQ
notes: PYL9, PYR/PYL/RCAR family ABA receptor, Arabidopsis thaliana; cDNA fused to the C terminus of the GST tag in pCold-GST between EcoRI and SalI; source: E. coli, purified (Glutathione Sepharose 4B, eluted with reduced glutathione); not shown: GST, N-terminal, kept
B4: GST-PYL7 (receptor, Arabidopsis thaliana, UniProt Q1ECF1 1-211, looked up)
chain: MEMIGGDDTDTEMYGALVTAQSLRLRHLHHCRENQCTSVLVKYIQAPVHLVWSLVRRFDQPQKYKPFISRCTVNGDPEIGCLREVNVKSGLPATTSTERLEQLDDEEHILGINIIGGDHRLKNYSSILTVHPEMIDGRSGTMVMESFVVDVPQGNTKDDTCYFVESLIKCNLKSLACVSERLAAQDITNSIATFCNASNGYREKNHTETNL
notes: PYL7, PYR/PYL/RCAR family ABA receptor, Arabidopsis thaliana; cDNA fused to the C terminus of the GST tag in pCold-GST; source: E. coli DE3 cells, purified (Glutathione Sepharose 4B); not shown: GST, N-terminal, kept

Legend:
[1] = molecular target: T1, MBP-PUB22; test: pull-down; MBP-PUBs or MBP on amylose resin incubated with GST-PYLs for 1 h at room temperature in 20 mM Tris-HCl pH 7.2, 10 mM MgCl2, 2 mM DTT; washed five times; blot with anti-GST antibody; conditions: both partners purified
[2] = molecular target: T2, MBP-PUB23; test: as above; conditions: both partners purified

Binder	binding result [1]	binding result [2]
B1	binds	–
B2	binds	–
B3	–	binds
B4	binds	–
